Measured values reported in paper PMC11263391 (Nature Communications, 2024).

B1: DDA3-degron 23-residue peptide (peptide)
peptide: SPEKLEEILDEANRLAAQLEQCAL
notes: DDA3; the region covering residues 70-93 was named as the potential degron and a 23-residue peptide was synthesized; residues 70-93 are 24 residues, the peptide is said to have 23; also called DDA3 residues 70–93; source: synthetic peptide (Shanghai Apeptide Co., Ltd.)
B2: LZTS1 degron peptide, 17 residues (ELESLMKEQDLLETKLR) (peptide)
peptide: ELESLMKEQDLLETKLR
notes: LZTS1 degron, positions E1 to R17 of the degron numbering; also called 17-residue degron; source: synthetic peptide (Shanghai Apeptide Co., Ltd.)
B3: CLIP2 degron peptide (peptide)
peptide: EIGELKAVMEGIKMEHQLELGN
notes: stretch of CLIP2, a reported ASB7 substrate; source: synthetic peptide (Shanghai Apeptide Co., Ltd.)
B4: LZTS1 degron peptide Y19R (peptide)
peptide: RQELESLMKEQDLLETKLRSRER
notes: numbers count on: the degron, E1 = third letter of the 23-residue peptide; source: synthetic peptide (Shanghai Apeptide Co., Ltd.)
B5: DDA3 degron peptide (peptide)
peptide: PEKLEEILDEANRLAAQLEQCAL
notes: stretch of DDA3; the text names the region as residues 70-93 (24 residues) and the peptide as 23 residues; also called DDA3 peptide; source: synthetic peptide (Shanghai Apeptide Co., Ltd.)
B6: LZTS1 degron peptide, 21 residues (RQELESLMKEQDLLETKLRSY) (peptide)
peptide: RQELESLMKEQDLLETKLRSY
notes: LZTS1 degron shortened by two residues at the C-terminus; source: synthetic peptide (Shanghai Apeptide Co., Ltd.)
B7: GIGYF1 degron peptide (peptide)
peptide: EDDEGLKHLQQEAEKLVASLQDS
notes: stretch of GIGYF1, a reported ASB7 substrate; source: synthetic peptide (Shanghai Apeptide Co., Ltd.)
B8: LZTS1 degron peptide, 21 residues (ELESLMKEQDLLETKLRSYER) (peptide)
peptide: ELESLMKEQDLLETKLRSYER
notes: LZTS1 degron shortened by two residues at the N-terminus; source: synthetic peptide (Shanghai Apeptide Co., Ltd.)
B9: CEP152 degron peptide (peptide)
peptide: ELEKAKQECQDLKGKLEKCCRH
notes: stretch of CEP152, a reported ASB7 substrate; source: synthetic peptide (Shanghai Apeptide Co., Ltd.)
B10: CCDC17 degron peptide (peptide)
peptide: LEQEIRELQAEAGRTRGALEVLG
notes: stretch of CCDC17, a reported ASB7 substrate; also called CCDC17 peptide; source: synthetic peptide (Shanghai Apeptide Co., Ltd.)
B11: GST-fused CEP152 degron peptide (peptide)
chain: GHCFQELEKAKQECQDLKGKLEKCCRHLQHLERKHK
notes: degron stretch of CEP152; pGEX vector; also called GST-tagged CEP152; not shown: GST, N-terminal, kept
B12: GST-fused GIGYF1 degron peptide (peptide)
chain: SSAGPPGDLEDDEGLKHLQQEAEKLVASLQDSSLEEEQFT
notes: degron stretch of GIGYF1; pGEX vector; also called GST-tagged GIGYF1; not shown: GST, N-terminal, kept
B13: GST-fused CCDC17 degron peptide (peptide)
chain: GMSRLFGLEQEIRELQAEAGRTRGALEVLGARIQELQAE
notes: degron stretch of CCDC17; pGEX vector; also called GST-tagged CCDC17; not shown: GST, N-terminal, kept
B14: GST-fused CLIP2 degron peptide (peptide)
chain: SGPGAQQKEIGELKAVMEGIKMEHQLELGNLQAKHDLET
notes: degron stretch of CLIP2; pGEX vector; also called GST-tagged CLIP2; not shown: GST, N-terminal, kept
B15: GST-fused LZTS1-degron (peptide)
chain: VLQLQQEKRQLRQELESLMKEQDLLETKLRSYEREKTSFG
notes: degron stretch of LZTS1; pGEX vector; also called GST-tagged LZTS1; not shown: GST, N-terminal, kept

Biological target: T1, ASB7-Elongin B-Elongin C ternary complex (human, UniProt Q9H672 11-318; Q15370 1-104; Q15369 17-112)
T1 construct: ASB7, human, residues 11-318; Elongin B, human, residues 1-104; ASB7 cloned into pET28-MKH8SUMO (Addgene plasmid #79526 is the vector); Elongin B and C in pCDFDuet-1; tag cleaved with TEV protease; also called ASB7-Elongin B/C; wild-type ASB7; source: E. coli BL21 (DE3), co-expressed, purified (Ni-NTA, Superdex 200); not shown: SUMO, N-terminal, cleaved; copies: + +
Experiment: ITC; peptide (0.8–4 mM) titrated into the ASB7 complex (39–156 µM); 16 °C; 20 mM Tris-HCl pH 7.5, 150 mM NaCl; MicroCal PEAQ-ITC
Conditions: both partners purified
Target sequence in this assay (Q9H672 11-318, chain 1 of 3): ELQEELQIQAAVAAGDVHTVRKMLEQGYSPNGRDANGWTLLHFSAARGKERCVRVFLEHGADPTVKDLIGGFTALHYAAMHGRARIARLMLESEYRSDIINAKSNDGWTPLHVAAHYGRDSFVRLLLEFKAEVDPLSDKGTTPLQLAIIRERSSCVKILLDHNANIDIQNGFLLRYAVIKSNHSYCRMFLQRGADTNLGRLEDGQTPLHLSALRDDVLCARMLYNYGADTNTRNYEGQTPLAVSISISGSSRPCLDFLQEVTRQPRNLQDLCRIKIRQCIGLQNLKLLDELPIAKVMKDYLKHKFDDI
Target sequence in this assay (Q15370 1-104, chain 2 of 3): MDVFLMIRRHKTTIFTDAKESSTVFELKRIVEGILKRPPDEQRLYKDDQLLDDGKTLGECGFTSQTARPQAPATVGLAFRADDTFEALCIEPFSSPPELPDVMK
Target sequence in this assay (Q15369 17-112, chain 3 of 3): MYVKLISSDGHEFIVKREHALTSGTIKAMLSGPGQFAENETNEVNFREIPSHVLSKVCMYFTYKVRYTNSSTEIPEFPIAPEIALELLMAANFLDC

| Kd [nM] | Binder |
| --- | --- |
| 1300 | B1 |

Biological target: T2, ASB7-Elongin B-Elongin C ternary complex (wild-type ASB7, residues 11-318) (human, UniProt Q9H672 11-318; Q15370 1-104; Q15369 17-112)
T2 construct: human ASB7, residues 11-318; human Elongin B, residues 1-104; also called ASB7-Elongin B/C; WT; source: E. coli BL21 (DE3), co-expressed, purified (Ni-NTA, Superdex 200); not shown: SUMO, N-terminal, cleaved; copies: + +
Experiment: ITC; peptide in the syringe titrated into ASB7-Elongin B/C in the cell; MicroCal PEAQ-ITC, 16 °C, 20 mM Tris-HCl pH 7.5, 150 mM NaCl; 39–156 μM protein, 0.8–4 mM peptide; repeated three times, mean ± SD
Conditions: both partners purified

T2 sequence (Q9H672 11-318, chain 1 of 3): as the sequence (Q9H672 11-318, chain 1 of 3) above
T2 sequence (Q15370 1-104, chain 2 of 3): as the sequence (Q15370 1-104, chain 2 of 3) above
T2 sequence (Q15369 17-112, chain 3 of 3): as the sequence (Q15369 17-112, chain 3 of 3) above

| Kd [nM] | stoichiometry N | Binder |
| --- | --- | --- |
| 5100 | 1.12 | B2 |
| 700 | 0.71 | B3 |
| 700 | 0.71 | B4 |
|  | 1.32 | B5 |
| 900 | 0.91 | B6 |
| 1000 | 0.78 | B7 |
| 700 | 0.68 | B8 |
|  | 1.27 | B9 |
| 1100 | 0.76 | B10 |

Biological target: T1, ASB7-Elongin B-Elongin C ternary complex
Experiment: pull-down; GST or GST-fusion degron peptides (~50 µg) on glutathione magnetic beads, ~30 µg purified ASB7-Elongin B/C added; 20 mM Tris-HCl pH 7.5, 400 mM NaCl, 2 mM β-mercaptoethanol; 4 °C; glutathione elution, Coomassie-stained SDS-PAGE
Conditions: both partners purified

| binding result | Binder |
| --- | --- |
| binds | B11 |
| binds | B12 |
| binds | B13 |
| binds | B14 |
| binds | B15 |
